Patent publication US8324357, “Universal fieldable assay with unassisted visual detection” (University of Southern California)

Experiments:
[1] = biological target: Russell's viper venom factor X activator (RVV-X) (UniProt Q7LZ61;Q4PRD1;Q4PRD2 Q7LZ61:189-619,Q4PRD1:24-146,Q4PRD2:25-158); experiment: EMSA; conditions: tags: Haematologic Technologies
VEGF165 = VEGF165 (Homo sapiens, UniProt P15692-4 P15692-4:27-191); experiment: EMSA; IC buffer, 3 mM CaCl2; conditions: tags: R&D Systems or USB; chain copies: 2 (inferred)
VEGF165, sequence (P15692 other isoform, or with tags, fused parts or gaps): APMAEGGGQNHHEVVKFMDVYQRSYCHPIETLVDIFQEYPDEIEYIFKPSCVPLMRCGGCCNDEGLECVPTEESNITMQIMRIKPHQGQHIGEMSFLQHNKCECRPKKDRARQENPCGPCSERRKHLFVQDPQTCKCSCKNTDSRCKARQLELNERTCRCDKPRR

Russell's viper venom factor X activator (RVV-X), sequence (Q7LZ61 189-619, chain 1 of 3): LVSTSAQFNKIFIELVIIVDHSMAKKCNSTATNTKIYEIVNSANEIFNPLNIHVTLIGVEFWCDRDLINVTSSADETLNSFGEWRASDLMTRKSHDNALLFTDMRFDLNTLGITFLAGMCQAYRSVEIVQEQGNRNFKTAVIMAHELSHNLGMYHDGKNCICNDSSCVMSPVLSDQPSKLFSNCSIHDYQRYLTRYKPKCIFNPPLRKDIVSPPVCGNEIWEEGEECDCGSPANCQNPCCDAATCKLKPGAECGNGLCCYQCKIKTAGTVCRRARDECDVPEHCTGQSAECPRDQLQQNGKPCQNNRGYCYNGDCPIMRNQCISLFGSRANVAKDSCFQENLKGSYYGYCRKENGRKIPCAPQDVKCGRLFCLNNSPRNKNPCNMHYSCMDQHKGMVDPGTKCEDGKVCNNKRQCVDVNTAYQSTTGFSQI
Russell's viper venom factor X activator (RVV-X), sequence (Q4PRD1 24-146, chain 2 of 3): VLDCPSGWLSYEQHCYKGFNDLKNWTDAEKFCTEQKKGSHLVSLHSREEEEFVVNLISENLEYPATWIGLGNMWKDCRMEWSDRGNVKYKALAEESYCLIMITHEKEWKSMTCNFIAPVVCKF
Russell's viper venom factor X activator (RVV-X), sequence (Q4PRD2 25-158, chain 3 of 3): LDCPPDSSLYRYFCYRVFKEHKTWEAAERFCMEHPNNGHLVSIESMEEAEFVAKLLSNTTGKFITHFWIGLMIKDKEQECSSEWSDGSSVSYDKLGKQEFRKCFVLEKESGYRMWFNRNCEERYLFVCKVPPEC

B1: RNA132 (ssRNA)
RNA: GGGAGGGAAUCAGUGAAUGCUUAUACAUCCCUCCUUGAGCAGUCGAUUAGUUUCGACAGGAGGCUCAC
- Kd [1]: 5.7 nM
- Kd (VEGF165): 5.7 nM
